Source: US20210261685A1

Target: human MerTK endogenously expressed on cells (SK-MEL-5 cells; human macrophages) (human) (UniProt Q12866)
Assay: cell-based or functional assay

Sequence of human MerTK endogenously expressed on cells (SK-MEL-5 cells; human macrophages) (human) (Q12866 21-999 limits assumed): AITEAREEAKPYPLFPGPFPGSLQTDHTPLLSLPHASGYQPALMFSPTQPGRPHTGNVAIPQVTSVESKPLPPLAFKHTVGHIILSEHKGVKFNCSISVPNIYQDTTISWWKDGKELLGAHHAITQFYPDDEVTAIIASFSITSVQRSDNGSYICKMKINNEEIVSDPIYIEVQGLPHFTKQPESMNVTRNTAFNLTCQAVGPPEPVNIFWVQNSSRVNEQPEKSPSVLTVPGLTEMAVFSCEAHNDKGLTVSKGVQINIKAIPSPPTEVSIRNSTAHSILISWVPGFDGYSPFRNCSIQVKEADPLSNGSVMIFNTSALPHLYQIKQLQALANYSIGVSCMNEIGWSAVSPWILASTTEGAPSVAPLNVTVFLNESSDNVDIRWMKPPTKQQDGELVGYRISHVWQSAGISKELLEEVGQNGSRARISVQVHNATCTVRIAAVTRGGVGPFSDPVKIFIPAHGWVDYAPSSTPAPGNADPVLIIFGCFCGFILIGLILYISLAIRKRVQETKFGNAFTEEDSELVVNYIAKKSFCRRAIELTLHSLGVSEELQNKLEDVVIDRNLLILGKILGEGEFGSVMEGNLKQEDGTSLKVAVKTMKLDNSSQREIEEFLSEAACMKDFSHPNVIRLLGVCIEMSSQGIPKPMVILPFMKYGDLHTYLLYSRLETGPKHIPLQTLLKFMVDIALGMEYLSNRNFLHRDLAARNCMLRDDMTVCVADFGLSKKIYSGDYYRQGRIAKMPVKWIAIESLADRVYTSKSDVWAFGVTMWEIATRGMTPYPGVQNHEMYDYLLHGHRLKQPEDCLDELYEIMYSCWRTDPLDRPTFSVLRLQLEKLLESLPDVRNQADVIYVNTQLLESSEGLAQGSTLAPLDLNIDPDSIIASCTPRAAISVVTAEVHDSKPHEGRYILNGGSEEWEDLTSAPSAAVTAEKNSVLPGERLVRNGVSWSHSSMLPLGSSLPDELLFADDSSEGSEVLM

B1: MTK-22 (antibody, human IgG1, V domains shown)
VH: QVQLQQPGADLVEPGASVKLSCKASGYTFTSYWMHWVKQRPGQGLEWIGEIDPSDSSSNYNQKFKGKATLTVDKSSSTAYMHLNSLTSEDSAVYYCARRYYYGSLYFDNWGQGTTLTVSS
VL: DVVMTQSHKFMSTSVGDRVSITCKASQDVGTAIAWYQQKPGQSPKLLIYWASTRHTGVPDRFTGSRSGTVFTLTISNVQSEDLADYFCQQYTSYPLTFGSGTKLEIK
B1 was tested, and the Gas6-mediated pAKT activity, average IC50, human M2c macrophages was 0.531 nM.
